According to patent US20200255478A1 (ALMIRALL S A, published 2020):
Positions of bridges follow the written chain, without caps; N, C: chain ends. Non-standard residues stand in square brackets, D forms with d. Primed or numbered codes have the meaning given here. *: point of attachment. (pyridine)3,5‑diyldimethylene = -CH2-(pyridine-3,5-diyl)-CH2- bridge between the two Cys sulfurs; (3,3-oxetanediyl)dimethylene = -CH2-(oxetane-3,3-diyl)-CH2- bridge between the two Cys sulfurs; (1,2-phenylenediyl)dimethylene = -CH2-(1,2-phenylene)-CH2- bridge between the two Cys sulfurs; Pro(4S-NH2) = N[C@@H]1CN[C@H](C(=O)O)C1; Stearoyl = CCCCCCCCCCCCCCCCCC(=O)*; Palmitoyl = CCCCCCCCCCCCCCCC(=O)*; Nonadecanoyl′ = not defined here; Myristoyl = CCCCCCCCCCCCCC(=O)*; Thz = O=C(O)[C@@H]1CSCN1; Dodecyl = CCCCCCCCCCCC*; βAla = NCCC(=O)O

B1: {[Stearyl-βAla-Leu-Leu-Cys(&1)-Asp-Pro-Glu-Thr-Gly-Glu-Cys(&2)-Leu-Leu-NH2][&1(3,3-oxetanediyl)dimethylene&2]} (peptide)
peptide: Stearoyl-[βAla]LLCDPETGECLL-NH2
modifications: linker 4-11 via (3,3-oxetanediyl)dimethylene
B2: {[&1Pro((4S)-NH-Stearyl)-Gln-Cys(&2)-Asp-Thz-Glu-Thr-Gly-Glu-Cys(&3)-Leu-D-Pro&1][&2(1,3-phenylenediyl)dimethylene&3]} (peptide)
peptide: cyclo([Pro(4S-NH2)](Stearoyl)QCD[Thz]ETGECL[dP])
modifications: linker 3-10 via (1,3-phenylenediyl)dimethylene
B3: {[&1Pro((4S)-NH-Arachidyl)-Gln-Cys(&2)-Asp-Thz-Glu-Thr-Gly-Glu-Cys(&3)-Leu-D-Pro&1][&2(1,2-phenylenediyl)dimethylene&3]} (peptide)
peptide: cyclo([Pro(4S-NH2)](Arachidyl)QCD[Thz]ETGECL[dP])
modifications: linker 3-10 via (1,2-phenylenediyl)dimethylene
B4: {[&1Pro((4S)-NH-Miristoyl)-Gln-Cys(&2)-Asp-Pro-Glu-Thr-Gly-Glu-Cys(&3)-Leu-D-Pro&1][&2(1,2-phenylenediyl)dimethylene&3]} (peptide)
peptide: cyclo([Pro(4S-NH2)](Myristoyl)QCDPETGECL[dP])
modifications: linker 3-10 via (1,2-phenylenediyl)dimethylene
B5: {[H-Leu-Gln-Cys(&1)-Asp-Ala-Glu-Thr-Gly-Glu-Cys(&2)-Leu-Pro-OH][&1(1,3-phenylenediyl)dimethylene&2]} (peptide)
peptide: H-LQCDAETGECLP-OH
modifications: linker 3-10 via (1,3-phenylenediyl)dimethylene
B6: {[&1Pro((4S)-NH-arachidyl)-Gln-Cys(&2)-Asp-Pro-Glu-Thr-Gly-Glu-Cys(&3)-Leu-D-Pro&1][&2(1,2-phenylenediyl)dimethylene&3]} (peptide)
peptide: cyclo([Pro(4S-NH2)](arachidyl)QCDPETGECL[dP])
modifications: linker 3-10 via (1,2-phenylenediyl)dimethylene
B7: {[&1Leu-Gln-Cys(&2)-Asp-Glu-Glu-Thr-Gly-Glu-Cys(&3)-Leu-Pro&1][&2(1,3-phenylenediyl)dimethylene&3]} (peptide)
peptide: cyclo(LQCDEETGECLP)
modifications: linker 3-10 via (1,3-phenylenediyl)dimethylene
B8: {[Stearyl-βAla-Lys-Gln-Cys(&1)-Asp-Pro-Glu-Thr-Gly-Glu-Cys(&2)-Leu-Pro-NH2][&1(1,2-phenylenediyl)dimethylene&2]} (peptide)
peptide: Stearoyl-[βAla]KQCDPETGECLP-NH2
modifications: linker 4-11 via (1,2-phenylenediyl)dimethylene
B9: {[Stearyl-βAla-Lys-Lys-Cys(&1)-Asp-Pro-Glu-Thr-Gly-Glu-Cys(&2)-Leu-Pro-NH2][&1(1,2-phenylenediyl)dimethylene&2]} (peptide)
peptide: Stearoyl-[βAla]KKCDPETGECLP-NH2
modifications: linker 4-11 via (1,2-phenylenediyl)dimethylene
B10: {[&1Pro((4S)-NH-Arachidyl)-Gln-Cys(&2)-Asp-Thz-Glu-Thr-Gly-Glu-Cys(&3)-Leu-D-Pro&1][&2(3,3-oxetanediyl)dimethylene&3]} (peptide)
peptide: cyclo([Pro(4S-NH2)](Arachidyl)QCD[Thz]ETGECL[dP])
modifications: linker 3-10 via (3,3-oxetanediyl)dimethylene
B11: {[&1Pro((4S)-NH-Palmitoyl)-Gln-Cys(&2)-Asp-Pro-Glu-Thr-Gly-Glu-Cys(&3)-Leu-D-Pro&1][&2(1,2-phenylenediyl)dimethylene&3]} (peptide)
peptide: cyclo([Pro(4S-NH2)](Palmitoyl)QCDPETGECL[dP])
modifications: linker 3-10 via (1,2-phenylenediyl)dimethylene
B12: {[&1Pro((4S)-NH-Arachidyl)-Gln-Cys(&2)-Asp-Pro-Glu-Thr-Gly-Glu-Cys(&3)-Leu-D-Pro&1][&2(3,3-oxetanediyl)dimethylene&3]} (peptide)
peptide: cyclo([Pro(4S-NH2)](Arachidyl)QCDPETGECL[dP])
modifications: linker 3-10 via (3,3-oxetanediyl)dimethylene
B13: {[&1Pro((4S)-NH-Nonadecanoyl)-Gln-Cys(&2)-Asp-Pro-Glu-Thr-Gly-Glu-Cys(&3)-Leu-D-Pro&1][&2(1,2-phenylenediyl)dimethylene&3]} (peptide)
peptide: cyclo([Pro(4S-NH2)](Nonadecanoyl′)QCDPETGECL[dP])
modifications: linker 3-10 via (1,2-phenylenediyl)dimethylene
B14: {[&1Pro((4S)-NH-Lauryl)-Gln-Cys(&2)-Asp-Pro-Glu-Thr-Gly-Glu-Cys(&3)-Leu-D-Pro&1][&2(1,2-phenylenediyl)dimethylene&3]} (peptide)
peptide: cyclo([Pro(4S-NH2)](Dodecyl)QCDPETGECL[dP])
modifications: linker 3-10 via (1,2-phenylenediyl)dimethylene
B15: {[&1Pro((4S)-NH-behenyl)-Gln-Cys(&2)-Asp-Pro-Glu-Thr-Gly-Glu-Cys(&3)-Leu-D-Pro&1][&2(1,2-phenylenediyl)dimethylene&3]} (peptide)
peptide: cyclo([Pro(4S-NH2)](behenyl)QCDPETGECL[dP])
modifications: linker 3-10 via (1,2-phenylenediyl)dimethylene
B16: {[&1Pro((4S)-NH-α-linolenyl)-Gln-Cys(&2)-Asp-Pro-Glu-Thr-Gly-Glu-Cys(&3)-Leu-D-Pro&1][&2(1,2-phenylenediyl)dimethylene&3]} (peptide)
peptide: cyclo([Pro(4S-NH2)](α‑linolenyl)QCDPETGECL[dP])
modifications: linker 3-10 via (1,2-phenylenediyl)dimethylene
B17: {[&1Pro((4S)-NH-Stearyl)-Gln-Cys(&2)-Asp-Pro-Glu-Thr-Gly-Glu-Cys(&3)-Leu-D-Pro&1][&2(1,2-phenylenediyl)dimethylene&3]} (peptide)
peptide: cyclo([Pro(4S-NH2)](Stearoyl)QCDPETGECL[dP])
modifications: linker 3-10 via (1,2-phenylenediyl)dimethylene
B18: {[&1Pro((4S)-NH-Stearyl)-Gln-Cys(&2)-Asp-Arg-Glu-Thr-Gly-Glu-Cys(&3)-Leu-D-Pro&1][&2(1,2-phenylenediyl)dimethylene&3]} (peptide)
peptide: cyclo([Pro(4S-NH2)](Stearoyl)QCDRETGECL[dP])
modifications: linker 3-10 via (1,2-phenylenediyl)dimethylene
B19: {[&1Lys(N6-Stearyl)-Gln-Cys(&2)-Asp-Pro-Glu-Thr-Gly-Glu-Cys(&3)-Leu-D-Pro&1][&2(1,2-phenylenediyl)dimethylene&3]} (peptide)
peptide: cyclo(K(Stearoyl)QCDPETGECL[dP])
modifications: linker 3-10 via (1,2-phenylenediyl)dimethylene
B20: {[Stearyl-Lys(&1)-Gln-Cys(&2)-Asp-Pro-Glu-Thr-Gly-Glu-Cys(&3)-Leu-D-Pro&1][&2(1,2-phenylenediyl)dimethylene&3]} (peptide)
peptide: Stearoyl-KQCDPETGECL[dP]
modifications: lactam 1-C; linker 3-10 via (1,2-phenylenediyl)dimethylene
B21: {[&1Pro((4S)-NH-Acetyl)-Gln-Cys(&2)-Asp-Pro-Glu-Thr-Gly-Glu-Cys(&3)-Leu-D-Pro&1][&2(1,2-phenylenediyl)dimethylene&3]} (peptide)
peptide: cyclo([Pro(4S-NH2)](Ac)QCDPETGECL[dP])
modifications: linker 3-10 via (1,2-phenylenediyl)dimethylene
B22: {[&1Pro((4S)-NH-Stearyl)-Gln-Cys(&2)-Asp-Thz-Glu-Thr-Gly-Glu-Cys(&3)-Leu-D-Pro&1][&2(1,2-phenylenediyl)dimethylene&3]} (peptide)
peptide: cyclo([Pro(4S-NH2)](Stearoyl)QCD[Thz]ETGECL[dP])
modifications: linker 3-10 via (1,2-phenylenediyl)dimethylene
B23: {[&1Pro((4S)-NH-Stearyl)-Gln-Cys(&2)-Asp-Thz-Glu-Thr-Gly-Glu-Cys(&3)-Leu-D-Pro&1][&2(3,3-oxetanediyl)dimethylene&3]} (peptide)
peptide: cyclo([Pro(4S-NH2)](Stearoyl)QCD[Thz]ETGECL[dP])
modifications: linker 3-10 via (3,3-oxetanediyl)dimethylene
B24: {[&1Pro((4S)-NH-Stearyl)-Gln-Cys(&2)-Asp-Pro-Glu-Thr-Gly-Glu-Cys(&3)-Leu-D-Pro&1][&2(1,3-phenylenediyl)dimethylene&3]} (peptide)
peptide: cyclo([Pro(4S-NH2)](Stearoyl)QCDPETGECL[dP])
modifications: linker 3-10 via (1,3-phenylenediyl)dimethylene
B25: {[Stearyl-βAla-Leu-Gln-Cys(&1)-Asp-Pro-Glu-Thr-Gly-Glu-Cys(&2)-Leu-Pro-NH2][&1(pyridine)3,5-diyldimethylene&2]} (peptide)
peptide: Stearoyl-[βAla]LQCDPETGECLP-NH2
modifications: linker 4-11 via (pyridine)3,5‑diyldimethylene
B26: {[&1Pro((4S)-NH-oleyl)-Gln-Cys(&2)-Asp-Pro-Glu-Thr-Gly-Glu-Cys(&3)-Leu-D-Pro&1][&2(1,2-phenylenediyl)dimethylene&3]} (peptide)
peptide: cyclo([Pro(4S-NH2)](oleyl)QCDPETGECL[dP])
modifications: linker 3-10 via (1,2-phenylenediyl)dimethylene

Molecular target: T1, Keap1-Maltose Binding Protein (MBP tag) (UniProt Q14145 321-609, limits assumed)
T1 construct: also called Keap1-MBP; Keap-MBP
T1 sequence (Q14145 321-609 limits assumed): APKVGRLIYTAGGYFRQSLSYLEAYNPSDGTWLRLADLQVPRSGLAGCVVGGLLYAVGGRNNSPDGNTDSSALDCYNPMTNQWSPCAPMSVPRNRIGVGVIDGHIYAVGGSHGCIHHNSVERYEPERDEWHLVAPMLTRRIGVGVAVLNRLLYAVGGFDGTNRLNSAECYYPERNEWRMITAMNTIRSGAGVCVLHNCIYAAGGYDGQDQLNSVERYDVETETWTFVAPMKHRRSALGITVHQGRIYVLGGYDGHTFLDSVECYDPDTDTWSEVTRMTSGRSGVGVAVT
Test: TR-FRET competition vs ETGE-biotin; grade band per paragraph 615

IC50, < 1 nM:
B1
B2
B3
B4
B5
B6
B7
B8
B9
B10
B11
B12
B13
B14
B15
B16
B17
B18
B19
B20
B21
B22
B23
B24
B25
B26
